Measurements taken from US20230242601A1, “PEPTIDE USED TO PREVENT OR TREAT SYNUCLEINOPATHY” (TOHOKU UNIVERSITY, priority 2020, published 2023).

B1: SynP130-140 Y133F (peptide)
peptide: EEGFQDYEPEA
B2: SynP130-140 Y133F/Y136F (peptide)
peptide: EEGFQDFEPEA
B3: SynP130-140 peptide (peptide)
peptide: EEGYQDYEPEA

Molecular target: FABP3 fused with a His-tag at the N-terminus
Test: QCM, peptide added to immobilised FABP3

Chain of FABP3 fused with a His-tag at the N-terminus (P05413 2-133): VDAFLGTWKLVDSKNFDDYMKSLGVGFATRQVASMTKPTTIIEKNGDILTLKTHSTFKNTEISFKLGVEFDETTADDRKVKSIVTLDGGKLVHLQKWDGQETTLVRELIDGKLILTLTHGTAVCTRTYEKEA

Binder | Kd [nM] | fold stronger binding affinity against the natural SynP130-140 [fold]
B1 | 0.1 | 2
B2 | – | 2
B3 | 0.2 | –
